Assay results reported in US10829756B2, “Discovery of enzymes from the alpha-keto acid decarboxylase family” (Regents of the University of California, priority 2015, dated 2020).
“And” between values parts separate entries of the source, which are not always exact repeats. Equal entries are not always repeated.

Experiments:
[1] = High-throughput pH-dependent colorimetric assay of KIVD mutant libraries in crude cell extracts; type: biochemical; settings: combinatorial KIVD mutants
Experimental: Partially degenerate oligonucleotides were ordered from Integrated DNA Technologies (San Diego, Calif.) and were used to generate libraries of kivd mutants (with N-terminal his tags) by PCR. Library DNA was purified, inserted into the PCR-amplified pQE9 vector by isothermal Gibson assembly,^31 and transformed into XL1-Blue cells. Individual ampicillin-resistant colonies were picked and grown in 96-well blocks at 37° C. overnight. The number of colonies picked was three times the theoretical library size to ensure approximately 95% probability of all possible mutation combinations occurring. Glycerol was added to 25% (w/v) and libraries were stored at −80° C. until enzyme activity and specificity were assayed. KIVD mutant libraries were screened using a pH-monitored enzyme assay (method explained below) to measure the rate of H^+ consumption resulting from the decarboxylation of 2-ketoacids.
KIVD mutant libraries were grown overnight in culture blocks, diluted 1:100 into fresh media (Luria Broth), grown at 37° C. for 3 hours to OD600 ˜0.6, induced with 0.1 mM IPTG (GoldBio, Saint Louis, Mo.), and grown for 2 additional hours at 37° C. Cells from the well blocks were transferred to 96-well assay plates (Costar, Corning, N.Y.) and cell density was measured at 600 nm. […] Absorbance was measured at 615 nm in a spectrophotometer (TEK Powerwave XS, BioTek, Winooski, Vt.). […]

[2] = tested on: synthetic recursive+1 pathway; assay: In vivo alcohol production of the synthetic recursive+1 pathway (fermentation, GC-FID); type: cell-based, E. coli
Experimental: The measured specificity and activity for each enzyme was used to select two candidates for further characterization of their ability to modulate alcohol production in vivo. The two enzymes with the highest activity and specificity (FIG. 4), KIVD_VLV and GEO 175, were tested for their ability to reprogram the synthetic recursive+1 pathway to produce long-chain alcohol products in vivo. The alcohol-producing biochemical pathway was adapted from a previous study used to synthesize alcohols of various lengths.^3,4 Starting from glucose, the aforementioned+1 pathway, involving LeuABCD, recursively elongates 2-ketoacids, starting with 2-ketobutyrate, into longer chained 2-ketoacids. These 2-ketoacids are then converted to aldehydes by ketoacid decarboxylases (native KIVD, KIVD_VLV, and GEO 175) and subsequently to alcohols by an alcohol dehydrogenase. Carbon flux through this alcohol synthesizing biochemical pathway is enhanced by overexpressing thrABC, ilvA, LeuABCD, and ADH6 on inducible plasmids transformed into E. coli.^3 The effects of overexpression were furthermore supported and maintained by knocking out the threonine exporter enzyme RhtA and the primary DNA recombination degradation enzyme RecA. The enzyme AdhE was also knocked out, which helps raise long chain alcohol production by eliminating a competing pathway where acetyl-CoA is directly converted to ethanol.^19
Genes were removed from the ATCC 98082 ΔrhtA strain genome using P1 transduction from the Keio collection as previously.^32 The aldehyde-alcohol dehydrogenase gene (adhE) was knocked out to eliminate ethanol production from acetyl-coA. In all strains, recA was knocked out to prevent recombination between the genome and plasmids, thereby stabilizing the transformants. Primers used to target recA for knockout were designed based on the Keio collection (Genobase, ecoli.aist-nara.ac.jp) and ordered from Integrated DNA Technologies.
For n-alcohol production, strains of ST128 were transformed with pZS_thrO, pZAlac_ilvABSleuA, and pZE_LeuA*BCDK*A6 containing various kivd mutations. Fermentation conditions were adapted from those in previous works,^3,4 with the following changes: 20 mL of medium was used, with 100 μg/mL ampicillin, […] kanamycin, and 100 μg/mL spectinomycin added. Cells were grown to an optical density at 600 nm of ˜0.6, followed by induction with 0.1 mM isopropyl-b-D-thiogalactoside (IPTG). After fermentation, cells were centrifuged for 15 minutes at 4000×g and 4° C. The supernatant was split into two fractions for analysis, 5 mL for short chain alcohols (ethanol, 1-propanol, and 1-butanol), and 15 mL for long chain alcohols (1-pentanol, 1-hexanol, 1-heptanol, and 1-octanol). Long chain alcohols were extracted from the 15 mL fraction by 3 mL n-hexane prior to analysis. GC-FID analysis was performed as previously described.^4

[3] = In vitro steady-state kinetics of purified 2-ketoacid decarboxylases (ADH/NADH-coupled), C8 substrate; type: biochemical; settings: relative to GEO 175
Experimental: (§1) For the native KIVD and KIVD_VLV mutant, 2 ml overnight cultures of XL1B cells were transformed with pQE9 containing N-terminal his-tagged KIVD enzymes and grown in Terrific Broth (BP biomedical, Cat#3046-042) with 50 μg/mL of carbenicillin. (Fisher scientific, Cat# BP2648-5) For the GEOs, 2 ml overnight cultures of BLR cells were transformed with pet29b+ plasmid containing N-terminal his-tagged GEOs, and grown in Terrific Broth with 50 μg/mL of kanamycin. (Fisher scientific, Cat# BP906-5) These cultures were diluted 1:1000 in 500 mL of Terrific Broth with 1 mM MgSO4, 1% glucose, and 50ug/mL of corresponding antibiotics, then grown at 37° C. for 24 hours. […] Protein concentrations were determined using a Synergy H1 spectrophotometer (Biotek) by measuring absorbance at 280 nm using their calculated extinction coefficients with ExPASy ProtParam Tool.^33 All other buffers and salts were purchased from Fisher Scientific unless otherwise specified.
(§2) The kcat and KM values of selective KIVD mutants were measured for the substrates: C3, C5, isoC5, and C8. […] Activity was measured at 0.005 mM to 10 mM substrates. […] Absorbance readings were taken every 1-minute at OD340 at 21° C. for 60 minutes using the Synergy H1. Kinetic parameters (kcat and KM) were determined by fitting initial velocity versus substrate concentration data to the Michaelis-Menten equation.

[4] = In vitro steady-state kinetics of purified 2-ketoacid decarboxylases (ADH/NADH-coupled), C5 substrate; type: biochemical; settings: relative to GEO 175
Experimental: as §1, §2

[5] = forty hours, microaerobic, defined media

Molecule	specificity for C8 and activity in colorimetric screening [1]	drop of overall alcohol production from that obtained with KIVD [2]	heptanol share of alcohol production [2]	hexanol share of alcohol production [2]	major alcohol product [2]	pentanol share of alcohol production [2]	1-Ethanol production [2, 5]	1-Heptanol production [2, 5]	1-Hexanol production [2, 5]	1-Octanol production [2, 5]	1-Pentanol production [2, 5]	1-Propanol production [2, 5]	long chain (≥C5) alcohols produced ([2]; sum of long chain alcohols)	effect on catalytic efficiency on C8 [3]	effect on shorter chain substrates [4]
KIVD_VLV: KIVD triple mutant G402V/M538L/F542V, SEQ ID NO:3 (protein, Synthetic protein KIVD_VLV) MYTVGDYLLDRLHELGIEEIFGVPGDYNLQFLDQIISRKDMKWVGNANELNASYMADGYARTKKAAAFLTTFGVGELSAVNGLAGSYAENLPVVEIVGSPTSKVQNEGKFVHHTLADGDFKHFMKMHEPVTAARTLLTAENATVEIDRVLSALLKERKPVYINLPVDVAAAKAEKPSLPLKKENSTSNTSDQEILNKIQESLKNAKKPIVITGHEIISFGLEKTVSQFISKTKLPITTLNFGKSSVDEALPSFLGIYNGKLSEPNLKEFVESADFILMLGVKLTDSSTGAFTHHLNENKMISLNIDEGKIFNESIQNFDFESLISSLLDLSEIEYKGKYIDKKQEDFVPSNALLSQDRLWQAVENLTQSNETIVAEQGTSFFGASSIFLKPKSHFIGQPLWVSIGYTFPAALGSQIADKESRHLLFIGDGSLQLTVQELGLAIREKINPICFIINNDGYTVEREIHGPNQSYNDIPMWNYSKLPESFGATEERVVSKIVRTENEFVSVMKEAQADPNRMYWIELILAKEDAPKVLKKLGKLVAEQNKS	highest specificity and activity	~10 fold	37%	47%	Hexanol (C6)	16%	no ethanol or propanol production is observed	269 mg/L and 269 ± 23 mg/L	341 mg/L and 341 ± 63 mg/L	not observed	118 mg/L and 118 ± 29 mg/L	no ethanol or propanol production is observed	728 mg/L	–	–
GEO175 L376T_T240S: engineered mutant of GEO 175 containing two amino acid changes (L376T, T240S), SEQ ID NO:19 (protein, Synthetic mutant of GEO175) MRTVRESALDVLRARGMTTVFGNPGSTELPMLKQFPDDFRYVLGLQEAVVVGMADGFALASGTTGLVNLHTGPGTGNAMGAILNARANRTPMVVTAGQQVRAMLTMEALLTNPQSTLLPQPAVKWAYEPPRAADVAPALARAVQVAETPPQGPVFVSLPMDDFDVVLGEDEDRAAQRAAARTVTHAAAPSAEVVRRLAARLSGARSAVLVAGNDVDASGAWDAVVELAERTGLPVWSAPSEGRVAFPKSHPQYRGMLPPAIAPLSRCLEGHDLVLVIGAPVFCYYPYVPGAHLPENTELVHLTRDADEAARAPVGDAVVADLALTVRALLAELPAREAAAPAARTARAESTAEVDGVLTPLAAMTAIAQGAPANTTWVNESPSNLGQFHDATRIDTPGSFLFTAGGGLGFGLAAAVGAQLGAPDRPVVCVIGDGSTHYAVQALWTAAAYKVPVTFVVLSNQRYAILQWFAQVEGAQGAPGLDIPGLDIAAVATGYGVRAHRATGFGELSKLVRESALQQDGPVLIDVPVTTELPTL	–	–	–	–	–	–	–	–	–	–	–	–	–	decrease catalytic efficiency on C8	negligible effect
